How the values were obtained:
[1] = biological target: mouse Izumo1, immobilized AVEXIS bait (UniProt Q9D9J7); assay: AVEXIS; settings: parent: est. 0.51; read off a plot
[2] = biological target: human Izumo1, immobilized AVEXIS bait (UniProt Q8IYV9); assay: AVEXIS; settings: parent: est. 0.16; read off a plot
Chain of human Izumo1, immobilized AVEXIS bait (Q8IYV9 22-350): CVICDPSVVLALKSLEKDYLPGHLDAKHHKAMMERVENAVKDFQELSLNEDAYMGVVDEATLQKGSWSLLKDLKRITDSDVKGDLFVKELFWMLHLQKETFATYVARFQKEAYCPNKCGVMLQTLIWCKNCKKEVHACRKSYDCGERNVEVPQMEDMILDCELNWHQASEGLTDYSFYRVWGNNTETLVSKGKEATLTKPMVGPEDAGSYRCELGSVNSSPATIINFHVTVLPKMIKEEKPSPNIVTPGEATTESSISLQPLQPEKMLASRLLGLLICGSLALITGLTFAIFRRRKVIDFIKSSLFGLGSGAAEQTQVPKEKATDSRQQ

Chain of mouse Izumo1, immobilized AVEXIS bait (Q9D9J7 22-397): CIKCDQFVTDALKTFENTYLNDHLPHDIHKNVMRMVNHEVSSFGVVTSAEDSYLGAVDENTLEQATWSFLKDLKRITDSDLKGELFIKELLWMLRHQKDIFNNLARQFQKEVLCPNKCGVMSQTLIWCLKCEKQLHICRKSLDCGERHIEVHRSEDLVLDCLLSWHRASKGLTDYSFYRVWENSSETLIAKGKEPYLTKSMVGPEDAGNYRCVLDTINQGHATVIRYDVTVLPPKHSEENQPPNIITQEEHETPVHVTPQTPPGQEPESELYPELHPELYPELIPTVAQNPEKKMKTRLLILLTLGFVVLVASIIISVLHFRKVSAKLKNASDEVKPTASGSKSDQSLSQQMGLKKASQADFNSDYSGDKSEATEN
Chain of mouse Juno, wild type, AVEXIS prey (from UniProt Q9EQF4) Loop 3 (mouse Juno loop 3 replaced with the corresponding human residues) (Q9EQF4 20-222, change not shown): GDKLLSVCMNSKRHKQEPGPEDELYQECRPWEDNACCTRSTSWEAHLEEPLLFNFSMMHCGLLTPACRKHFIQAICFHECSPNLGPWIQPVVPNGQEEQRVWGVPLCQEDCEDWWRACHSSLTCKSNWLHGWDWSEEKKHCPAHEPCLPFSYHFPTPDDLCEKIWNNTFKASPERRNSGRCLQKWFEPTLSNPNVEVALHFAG
Chain of mouse Juno, wild type, AVEXIS prey (from UniProt Q9EQF4) Loop 2 (mouse Juno loop 2 replaced with the corresponding human residues) (Q9EQF4 20-222, change not shown): as above
Chain of mouse Juno, wild type, AVEXIS prey (from UniProt Q9EQF4) Loop1 (mouse Juno loop 1 replaced with the corresponding human residues) (Q9EQF4 20-222, change not shown): as above

Row | Substance | response [1] [A 485 nm] | response [2] [A 485 nm]
1 | mouse Juno, wild type, AVEXIS prey (from UniProt Q9EQF4) Loop 3 (mouse Juno loop 3 replaced with the corresponding human residues) | 0.52 | 0.51
2 | mouse Juno, wild type, AVEXIS prey (from UniProt Q9EQF4) Loop1 (mouse Juno loop 1 replaced with the corresponding human residues) | 0.22 | 0.16
3 | mouse Juno, wild type, AVEXIS prey (from UniProt Q9EQF4) Loop 2 (mouse Juno loop 2 replaced with the corresponding human residues) | 0.51 | 0.17
